Data from the nanobody polyreactivity screen of Harvey et al. (2022).

Experiment: yeast display, Sf9 membrane polyspecificity reagent, FACS + sequencing; frameworks hold sequencing errors
How it was run: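 A synthetic nanobody library was expressed on Saccharomyces cerevisiae BJ5465 by galactose induction for 36–48 hours. The library was stained for 1 hour at 4 °C with 10% biotinylated, detergent-solubilized Sf9 membrane reagent and enriched with streptavidin microbeads before FACS. Low and high (top ~1%) gates were set on anti-HA fluorescence for expression and streptavidin fluorescence for reagent binding, and each polyreactivity label reflects the gate of origin.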

Row | Sequence | polyreactivity (PSR sort gate)
1 | QVQLVESGGGLVQAGGSLRLSCAASGSTFPYNVMGWYRQAPGKERELVASISWSGGRQYYADSVKGRFTISRDNAKNTVYLQMNSLKPEDTAVYYCAADAAFPADYWGQGTQVTVSS | low polyreactivity
2 | QVQLVESGGGLVQAGGSLRLSCAASGSTFWSNAMGWYRQAPGKERELVAAITRGGSTNYADSVKGRFTISRDNAKNTVYLQMNSLKPEDTAVYFCAATYVPYGRRLYAYYYWGQGTQVTVSS | high polyreactivity
3 | QVQLVESGGGLVQAGGSLRLSCAASGRIFGDNALGWYRQAPGKERELVAAITWSGGSTYYADSVKGRFTISRDNAKNTVYLQMNSLKPEDTAVYYCAADSHRDSSEMDYWGQGTQVTVSS | low polyreactivity
4 | QVQLVESGGGLVQAGGSLRLSCAASGSIFVKYTMGWYRQAPGKERELVAAISFRGGSTYYADSVKGRFTISRDNAKNTVYLQINSLKPEDTAVYYCNADGGWWPEYYWGQGTQVTVSS | low polyreactivity
5 | QVQLVESGGGLVQAGGSLRLSCAASGGTFWAYTRGWYRQAPGKERELVATISFGTGNTYYADSVKGRFTISRDNAKNTVYLQMNSLKPEDTAVYYCAAQWPELTRSYVTVEVDYWGQGTQVTVSS | low polyreactivity
6 | QVQLVESGGGLVQAGGSLRLSCAASGRIFATNAMGWYRQAPGKERELVATITRSAGRTYYADSVKGRFTISRDNAKNTVYLQMNSLKPEDTAVYYCAASYWDTDPGYREYDYWGQGTQVTVSS | low polyreactivity
7 | QVQLVESGGGLDQAGGSLRLSCAASGRTFGVYAMGWYRQAPGKERELVAAITGRGGSTYYADSVKGRFTISRDNAKNTVYLQMNSLKPEDTAVYYCNAELYEYQSWDDYWGQGTQVTVSS | low polyreactivity
8 | QVQLVESGGGLVQAGGSLRLSCAASGSTFQTYVMGWYRQAPGKERELVAAITWSGGSTYYADSVKGRFTISRDNAKNTVYLQMNSLKPEDTAVYYCAARFPWRGGVKYSYYFQHDYWGQGTQVTVSS | high polyreactivity
9 | QVQLVESGGGLVHAGGSLSLSCAASGSIFPTNVMGWYRQAPGKERELVAAISANDGSTYYADSVKGRFTISRDNAKNTVYLQMNSLKPEDTAVYYCNQEGYTYRFTWYDYWGQGTQVTVSS | low polyreactivity
10 | QVQLVESGGGLVQAGGSLRLSCAASGRIFSGYAMGWYRQAPGKERELVAAITSGASTNYADSVKGRFTISRDNAKNTVYLQMNSLKPEDTAVYYCNKKRTADYDYWGQGTQVTVSS | low polyreactivity
11 | QVQLVESGGGLVQAGGSLRLSCAASGSISSFYAMGWYRQAPGKERELVAGITSGGSTNYADSVKGRFTISRDNAKNTVYLQMNSLKPEDTAVDYCAAVYKGAGTHFDVFVKEFDYWGQGTQVTVSS | low polyreactivity
12 | QVQLVESGGGLVQAGGSLRLSCAASGTTFGRYAMGWYRQAPGKERELVAAITRSGGRTYYADSVKERFTISRDNAKNTVYLQMNSLIPEDTAVYYCAAVGNLYYTSLWQYDYWGQGTQVTVSS | high polyreactivity
13 | QVQIVESGGGLVQAGGSLRLSCAASGSIFRKNAMGWYRQAPGKERELVAAITRRGGSTYYADSVKARFTISRDNAKNTVYLQMNSLKPEDTAVYYCAATGGAPYKIEWGQGTQVTVSS | low polyreactivity
14 | QVQLVESGVGLVQAGGSLRLRCAASARIFGWYTMGWNRQSPGKERELVADINFGGSTYYADSVKGRFTISRDNAKNTVYLLMKSLKSEYTAVFYCNADYSVYIIADEYDYWGQGTQVTVSS | low polyreactivity
15 | QVQLVESGGGLVQAGGSLRLSCAASGSIFRDYAMGWYRQAPGKERELVAAITWSGGRTYYADSVKGRFTISRDNAKNTVYLQMNSLKPEDTAVYYCAARSTRQYEYDYWGQGTQVTVSS | low polyreactivity
16 | QVQLVESGGGLVRAGGSLRLSCAASGFIFTSYVMGWYRQAPGKERELVAAITSGNSTYYADSVKGRFTISRDNAKNTVYLQMNSLKPEDTAVYYCTADSYHTYYYWYDYWGLGTQVTVSS | low polyreactivity
17 | QVQLVESGGGLVQAGGSLRLSCAASGFTLGYYTMGWYRQAPGKERELVAAIRSNGGSTYYADSVKGRFTISRDNAKNTVYLQMNSLKPEDTAVYYCAADHAYFLTHSSYLFYYWGQGTQVTVSS | high polyreactivity
18 | QVQLVESGGGLVQAGGSLRLSCAASGSIFYHNAMGWYRQAPGKERELVAAISSSGGNTYYADSVKGRFTISRDNAKNTVYLQLNSLKPEDTAVYYCNKGFSYRSGRGYWGQGTQVTVSS | high polyreactivity
19 | QVQLVESGGGLVQAGGSLRLSCAASGSTLDFNAMGWYRQAPGKERELVATITYGVGKNYADSVKGRFTISRDNAKNTVYLQMNSLKPEDTAVYYCAANNWDYARYTYWYYSFLAYDYWGQGTQVTVSS | low polyreactivity
20 | QVQLVESGGGLVQAGGSLRLSCAASGSTFAYYAMGWYRQAPGKERELVARITASGGRTYYADSVKGRFTISRDNAKNTVYLQMNSLKPEDTAVYYCAKGRYVEVSYGAHYDYWGQGTQVTVSS | low polyreactivity
21 | QVQLVESGGGLVQAGGSLRLSCAASGSIFSANVMVWYRQAPGKEWELVAASRRGGTTYYADSVKGRFTISRDNAKNTVYLQMNSLKPEDTAVYYCATDGNFGSYLRFAVAYDYWGQGTQVTVSS | low polyreactivity
22 | QVQLVESAGGLVQAGGSLRLSCAASGSIFVPNVMGWYRQAPGKERELVATITRSTSTYYADSVKGRFTISRDNAKNTVYLQMNSLKPEDTAVYYCAAVWEWYSKYTRFYYWGQGTQVTVSS | high polyreactivity

Row | Sequence | polyreactivity (PSR sort gate)
23 | QVQLVESGGGLVQAGGSLRLSCAASGSIFGRNAMGWYREAPGKERVLVAAINSGGSTNYADSVKGRFTISRDNAKNTVYLQMNSLKPEDTAVYYCAARTYSSGRYYGYVAFYYWGQGTQVTVSS | high polyreactivity
24 | QVQLVESGGGLVQAGGSLRLSCAASGSIYYPYAMGRYRQAPGKERELVAAITTGGSTYYADSVKGRFTISRDNAKNTVYLQMNSLKPEDTAVYYGNKGSFPYTSKAYSYSLGGDDYWGQGTQVTVSS | low polyreactivity
25 | QVQLVESGGGLVKAGGSIRLSCAASGSIFYRNTMGWYRQAPRKERQLVAAISKTGGSTYYSDSVKGRFTISRDNAKNTVYVQMNSLKPEDTAVYYCNRAPYALRVLCTGIISGHDYWGQGTQVTVSS | high polyreactivity
26 | QVQLVESGGGLVQAGGSLRLSCAASGRTFFRYAMGWYRQAPGKERELVAAISSRGGSTYYADSVKGRFTISRDNAKNTVYLQMNSLKPEDTAVYYCNAAAFINFILYDYWGQGTQVTVSS | high polyreactivity
27 | QVQLVESGGGLVQAGGSLRLSCAASGSIFYQNMGWYRQAPRKERELVATINRGSSTHYADSVKGRFTISRDNAKNTVYLQMNSLKPEDTAVYYCAKRSSRYRLYYWGQGTQVTVSS | high polyreactivity
28 | QVQLVESGGGLVQAGGSLRLSCAASGSIFSSYALGWYRQAPGKVRELVAAITKRADRTNYADSVKGRFTISRDNAKNTVYLQMNSLKPEDTAVYYCNAEGQNDHPSNGYISYKYDYWGQGTQVTVSS | low polyreactivity
29 | QVQLVESGGGLVQAGGSLRLSCAASGSTFGGYSMGWYRQAPGKERELVAAITYSGGSTYYADSVKGRFTISGDIAQNTVYLQMKSLKPEDTAFYYCNADDDDALPWWWPYVLDVDYWGQGTQVTVSS | low polyreactivity
30 | QVQLVESGGGLVQAGGILRLGCAASGSTFAWNAMGWYRPAPGKERELVATISRSGSTNYADSVKGRFTISRDNAKNTVYLQMNCLKPEVTAVYYCARDKRYYRQYYYHTRYYYWGQGTQVTVSS | high polyreactivity
31 | QVQLVESGGGLVQAGGSLRLRCAASGFTFYHYAMGWYRQAPGKERELVAAITWSGGDTYYADSVKGRFTISRDNAKNTVYLQMNSLKPEDTAVYYCNADDPPGAPYYDSFDYRGDYWGQGTQVTVSS | low polyreactivity
32 | QVQLVESGGGLVQAGGSLRLSCAASGYTFTIYALGWYRQAPGKEMELVASISIDGSTYYADSVKGRFTISRDNAKNTVYLQMNSLKPEDTAVYYCAADYYYYTPGFDYWGQGTQVTVSS | low polyreactivity
33 | QVQLVESGGGLVQAGGSLRLSCAASGITFSRYAMGWYRQAPVKERELVAAITWDGGRTYYADSVKGRFTISRANAKNTVYLQMNSRKPEDTADYYCSAGSAWWYYWGQGTQVTVSS | high polyreactivity
34 | QVQLVESGGGLVQAGGSLRLICAASGSIFYQNAMVGYRQAPGKERELVAAIRSRGGSTYYADSVKGRFTISRDNATNTVYLQMNSLKPEDTAVYYCNKLSRTTSYTYNYWGQGTQVTVSS | low polyreactivity
35 | EVQLVESGGGLVQAGGSLRLSCAASGRIFKYYTMGWYRQAPGKERELVAAISRDDSTNYADSVKGRFTISRDNAMNTVYLQMNSLKPEDTAVYYCAKGYHQYAGFYYWGQGTQVTVSS | high polyreactivity
36 | QVQLVESGGGLVQAGGSLRLSCAASGIIFAYYAMGWYRQAPGKERELVASITNTGSTYYADSVKGRFTISRDNAKNTVYLQMNSLKPEDTAVYFCNAVLSSNTKWRYPGDYLGQGTQVTVSS | low polyreactivity
37 | QVQLVESGGGLVQAGGSLRLSCAASGLTDVRYAMGWYRQAPGKEREFVAAINWRGTRTYADSVKGRYTISRDNAKNTVYLQMNSLKPEDTAVYYCAARTLYFSKYVYWGQGTQVTVSS | high polyreactivity
38 | QVQLVESGGGLVQAGGSLRLSCAASGSIFSSNAMVWYRPAPGKERELVAAIDYSGGRTYYADSVKGRFTISRDNPKNTVYLQMNSLKPEDTAVYYCAKLIPVHSRYDYWGQGTQVTVSS | low polyreactivity
39 | QVQLVESGGGLVQAGGSLRLSCAASGSIFYLYAMGWYRQEPGKERELVAAINFRGGSTYADSVKGRFTISRDNAKNTVYLQMNSLKPEDTAVYYCAAKAAYRMNYWGQGTQVTVSS | high polyreactivity
40 | QVQLVESGGGLVQAGGSLRLSCAASGRIFGRDMGWYRQAPGKERELVATITWRGGSTYYADSVKGRFTISRDNAKNTVYLQMNSLKPEDTAVYYCTAALSHDYWHYRLGYWGQGTQVTVSS | low polyreactivity
41 | QVQLVESGGGLVQAGGSLRLSCAASGRIITKYTMGWYRQAPGKERELVAAISRSDRTNYADSVKGRFTISRDNAKNTVYLQMNSLKPEDTAVYYCAAQFTVLWYEYYYWGQGTQVTVSS | high polyreactivity
42 | QVQLVESGGGLVQAGGSLRLSCAASGSIFGFNAMGWYRQAPGKEREFVAVISNRGGSTYYADSVKGRFTISRDNAKNTVYLQMNSLKPEDTAVYYCAARPYRDSGYWGQGTQVTVSS | high polyreactivity
43 | QVQLVESGGGLVQAGGSLRLSCAASGSIFVYNAKGWYRQAPGKERELVAAISSSGSSTYYADSVKGRFTISRDNAKNTFYLQMNSLKPEDTAVYYCAADPARYGYWNSYDYWGQGTQVTVSS | high polyreactivity
